Patent publication US20140370021A1

How the values were obtained:
[1] = target: extracellular region of human R131 FcγRIIa, GST-tagged (human) (UniProt P12318); assay: AlphaScreen competition: the antibody displaces biotinylated WT antibody (donor beads) from GST-tagged human R131 FcγRIIa (acceptor beads)
[2] = target: extracellular region of human V158 FcγRIIIa fused with glutathione S-transferase (GST) (human) (UniProt P08637); assay: AlphaScreen competition as in Example 2 (biotinylated WT antibody on donor beads, GST-tagged human V158 FcγRIIIa on acceptor beads); Fc variants in the context of trastuzumab
[3] = target: His-tagged V158 FcγRIIIa (UniProt P08637); assay: SPR, receptor immobilized
[4] = target: F158 FcγRIIIa as used in SPR (UniProt P08637); assay: SPR
[5] = target: extracellular region of human V158 FcγRIIIa fused with glutathione S-transferase (GST) (human) (UniProt P08637); assay: AlphaScreen competition
[6] = target: bacterial protein A (UniProt P38507); assay: AlphaScreen competition: the antibody displaces biotinylated WT alemtuzumab (donor beads) from protein A coupled directly to acceptor beads
[7] = target: FcγRIIIa on human PBMCs, heterozygous V158/F158 (human) (UniProt P08637); assay: cell-based or functional assay

IC50 (read off the curve) [1] [nM]	Kd [3] [nM]	Kd [4] [nM]	Substance	further results
7			S239D/A330L/I332E (antibody)	
3			S239D/A330Y/I332E (antibody)	
4			S239D/S298A/I332E (antibody)	
6			S239N/A330Y/I332E (antibody)	
			S239N/I332E (antibody)	IC50 (read off the curve) [2]: 0.7 nM
	68	730	WT alemtuzumab (Campath), IgG1, expressed in 293T cells (antibody)	
			alemtuzumab Fc variant 192 (V264E/N297D/I332E by Table 60; printed V264I/N297D/I332E in Table 61) (antibody)	FcγRIIIa Fold [5]: 0.05 fold vs WT
	31	72	alemtuzumab I332E (antibody)	IC50 (read off the curve) [6]: 1e-09 2M
3			alemtuzumab S239D/I332E (antibody)	ADCC EC50 [7]: 3 ng/mL; ADCC log(EC50) [7]: 0.49 log(ng/ml)
	52	285	alemtuzumab S298A (antibody)	
	39	156	alemtuzumab S298A/E333A/K334A (antibody)	
	64	550	alemtuzumab V264I (antibody)	IC50 (read off the curve) [6]: 1e-09 2M
	17	52	alemtuzumab V264I/I332E (antibody)	ADCC EC50 [7]: 4 ng/mL; ADCC log(EC50) [7]: 0.6 log(ng/ml)
